The source of these data is US20260374883 (published 2026).

In one assay the target is T1, mouse CX3CR1 (mouse, UniProt Q9Z0D9).
T1 chain: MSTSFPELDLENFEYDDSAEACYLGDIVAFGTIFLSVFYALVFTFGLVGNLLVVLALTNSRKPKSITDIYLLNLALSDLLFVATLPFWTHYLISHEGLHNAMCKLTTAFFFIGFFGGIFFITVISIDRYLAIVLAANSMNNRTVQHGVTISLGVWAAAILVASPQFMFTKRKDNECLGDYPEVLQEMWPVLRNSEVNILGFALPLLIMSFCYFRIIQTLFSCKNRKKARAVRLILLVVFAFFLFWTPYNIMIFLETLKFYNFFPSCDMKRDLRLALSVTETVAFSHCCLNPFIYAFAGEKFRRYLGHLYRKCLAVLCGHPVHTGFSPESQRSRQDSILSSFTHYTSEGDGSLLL
The assay can be described thus: FACS. (In general: Flow cytometry measures light scatter and fluorescence of single cells or particles in a stream.)

The next assay addresses T2, rat CX3CR1 (rat, UniProt P35411).
T2 chain: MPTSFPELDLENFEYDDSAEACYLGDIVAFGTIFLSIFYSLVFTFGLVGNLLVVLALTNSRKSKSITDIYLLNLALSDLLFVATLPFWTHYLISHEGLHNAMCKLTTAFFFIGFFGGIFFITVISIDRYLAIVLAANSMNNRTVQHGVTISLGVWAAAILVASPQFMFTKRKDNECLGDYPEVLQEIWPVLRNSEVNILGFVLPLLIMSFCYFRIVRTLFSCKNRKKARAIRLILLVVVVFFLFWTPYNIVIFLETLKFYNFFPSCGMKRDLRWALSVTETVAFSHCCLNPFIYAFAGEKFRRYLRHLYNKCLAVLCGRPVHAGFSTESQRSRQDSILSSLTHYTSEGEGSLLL
Put plainly: FACS.

B1: m1F8-2 (antibody, V domains shown)
VH: QVQLQQSGAELARPGASVKLSCKASGFTFTNYWMQWIKQRPGQGLEWIGAIYPGSGESRYTRKFKGKATLTADKSSSTAYMQLNSLASEDSAVYYCARWAGYSRNAAYWGQGTLVTVSA
VL: DVLMTQTPLSLPVSLGDQASISCRSRQSIVHSSGNTYLEWYLQKPGQSPKLLIYKVSNRFSGVPDRFSGSGSGTDFTLKISRVEAEDLGVYYCFQGSHIPPTFGGGTKLEIK
In the case of B1, the binding result with mouse CX3CR1 and in the assay with rat CX3CR1 was “no binding” throughout.

B2: m1F8-1 (antibody, V domains shown)
VH: QVQLQQSGAELARPGASVKLSCKASGFTFTNYWMQWIKQRPGQGLEWIGAIYPGSGESRYTRKFKGKATLTADKSSSTAYMQLNSLASEDSAVYYCARWAGYSRNAAYWGQGTLVTVSA
VL: DVLMTQTPLSLPVSLGDQASISCRSSQSIVHSSGNTYLEWYLQKPGQSPKLLIYKVSNRFSGVPDRFSGSGSGTDFTLKISRVEAEDLGVYYCFQGSHIPPTFGGGTKLEIK
Consider B2, for which the binding result in the assay with mouse CX3CR1 and with rat CX3CR1 was “no binding” each time.
